What was measured:
[1] = molecular target: TLR5-N14VLR (zebrafish, Danio rerio | hagfish) (UniProt B3DIN1); experiment: fluorescence polarisation
[2] = molecular target: drTLR5-ECD (zebrafish, Danio rerio); experiment: fluorescence polarisation

For “CBLB502-ΔD0 (from UniProt Q06971 1-505) (ligand)”, the fold change in binding affinity (against CBLB502) [1] was 2 to 3 fold and the fold change in binding affinity (against CBLB502) [2] was 2 to 3 fold.

Reference: paper PMC3406927
